From US20180230236A1

Tests used:
[1] = molecular target: canine IgE (canine monoclonal IgE from mouse x dog heterohybridoma cell line 2.39) (canine); experiment: affinity estimated from titration to end signal on IgE coated ELISA microtiter plates
[2] = molecular target: canine IgE (canine monoclonal IgE from mouse x dog heterohybridoma cell line 2.39) (canine); experiment: flow cytometry; C2 cells loaded with APC-canine IgE, then supernatant of chimera-transfected HEK 293 for 60 min at room temperature; displacement of IgE from FcεRI
[3] = molecular target: canine IgE (canine monoclonal IgE from mouse x dog heterohybridoma cell line 2.39) (canine); experiment: flow cytometry; displacement of APC-canine IgE from FcεRI on C2 cells by chimera supernatant

Sequence of canine IgE (canine monoclonal IgE from mouse x dog heterohybridoma cell line 2.39) (canine) (P25054 whole entry): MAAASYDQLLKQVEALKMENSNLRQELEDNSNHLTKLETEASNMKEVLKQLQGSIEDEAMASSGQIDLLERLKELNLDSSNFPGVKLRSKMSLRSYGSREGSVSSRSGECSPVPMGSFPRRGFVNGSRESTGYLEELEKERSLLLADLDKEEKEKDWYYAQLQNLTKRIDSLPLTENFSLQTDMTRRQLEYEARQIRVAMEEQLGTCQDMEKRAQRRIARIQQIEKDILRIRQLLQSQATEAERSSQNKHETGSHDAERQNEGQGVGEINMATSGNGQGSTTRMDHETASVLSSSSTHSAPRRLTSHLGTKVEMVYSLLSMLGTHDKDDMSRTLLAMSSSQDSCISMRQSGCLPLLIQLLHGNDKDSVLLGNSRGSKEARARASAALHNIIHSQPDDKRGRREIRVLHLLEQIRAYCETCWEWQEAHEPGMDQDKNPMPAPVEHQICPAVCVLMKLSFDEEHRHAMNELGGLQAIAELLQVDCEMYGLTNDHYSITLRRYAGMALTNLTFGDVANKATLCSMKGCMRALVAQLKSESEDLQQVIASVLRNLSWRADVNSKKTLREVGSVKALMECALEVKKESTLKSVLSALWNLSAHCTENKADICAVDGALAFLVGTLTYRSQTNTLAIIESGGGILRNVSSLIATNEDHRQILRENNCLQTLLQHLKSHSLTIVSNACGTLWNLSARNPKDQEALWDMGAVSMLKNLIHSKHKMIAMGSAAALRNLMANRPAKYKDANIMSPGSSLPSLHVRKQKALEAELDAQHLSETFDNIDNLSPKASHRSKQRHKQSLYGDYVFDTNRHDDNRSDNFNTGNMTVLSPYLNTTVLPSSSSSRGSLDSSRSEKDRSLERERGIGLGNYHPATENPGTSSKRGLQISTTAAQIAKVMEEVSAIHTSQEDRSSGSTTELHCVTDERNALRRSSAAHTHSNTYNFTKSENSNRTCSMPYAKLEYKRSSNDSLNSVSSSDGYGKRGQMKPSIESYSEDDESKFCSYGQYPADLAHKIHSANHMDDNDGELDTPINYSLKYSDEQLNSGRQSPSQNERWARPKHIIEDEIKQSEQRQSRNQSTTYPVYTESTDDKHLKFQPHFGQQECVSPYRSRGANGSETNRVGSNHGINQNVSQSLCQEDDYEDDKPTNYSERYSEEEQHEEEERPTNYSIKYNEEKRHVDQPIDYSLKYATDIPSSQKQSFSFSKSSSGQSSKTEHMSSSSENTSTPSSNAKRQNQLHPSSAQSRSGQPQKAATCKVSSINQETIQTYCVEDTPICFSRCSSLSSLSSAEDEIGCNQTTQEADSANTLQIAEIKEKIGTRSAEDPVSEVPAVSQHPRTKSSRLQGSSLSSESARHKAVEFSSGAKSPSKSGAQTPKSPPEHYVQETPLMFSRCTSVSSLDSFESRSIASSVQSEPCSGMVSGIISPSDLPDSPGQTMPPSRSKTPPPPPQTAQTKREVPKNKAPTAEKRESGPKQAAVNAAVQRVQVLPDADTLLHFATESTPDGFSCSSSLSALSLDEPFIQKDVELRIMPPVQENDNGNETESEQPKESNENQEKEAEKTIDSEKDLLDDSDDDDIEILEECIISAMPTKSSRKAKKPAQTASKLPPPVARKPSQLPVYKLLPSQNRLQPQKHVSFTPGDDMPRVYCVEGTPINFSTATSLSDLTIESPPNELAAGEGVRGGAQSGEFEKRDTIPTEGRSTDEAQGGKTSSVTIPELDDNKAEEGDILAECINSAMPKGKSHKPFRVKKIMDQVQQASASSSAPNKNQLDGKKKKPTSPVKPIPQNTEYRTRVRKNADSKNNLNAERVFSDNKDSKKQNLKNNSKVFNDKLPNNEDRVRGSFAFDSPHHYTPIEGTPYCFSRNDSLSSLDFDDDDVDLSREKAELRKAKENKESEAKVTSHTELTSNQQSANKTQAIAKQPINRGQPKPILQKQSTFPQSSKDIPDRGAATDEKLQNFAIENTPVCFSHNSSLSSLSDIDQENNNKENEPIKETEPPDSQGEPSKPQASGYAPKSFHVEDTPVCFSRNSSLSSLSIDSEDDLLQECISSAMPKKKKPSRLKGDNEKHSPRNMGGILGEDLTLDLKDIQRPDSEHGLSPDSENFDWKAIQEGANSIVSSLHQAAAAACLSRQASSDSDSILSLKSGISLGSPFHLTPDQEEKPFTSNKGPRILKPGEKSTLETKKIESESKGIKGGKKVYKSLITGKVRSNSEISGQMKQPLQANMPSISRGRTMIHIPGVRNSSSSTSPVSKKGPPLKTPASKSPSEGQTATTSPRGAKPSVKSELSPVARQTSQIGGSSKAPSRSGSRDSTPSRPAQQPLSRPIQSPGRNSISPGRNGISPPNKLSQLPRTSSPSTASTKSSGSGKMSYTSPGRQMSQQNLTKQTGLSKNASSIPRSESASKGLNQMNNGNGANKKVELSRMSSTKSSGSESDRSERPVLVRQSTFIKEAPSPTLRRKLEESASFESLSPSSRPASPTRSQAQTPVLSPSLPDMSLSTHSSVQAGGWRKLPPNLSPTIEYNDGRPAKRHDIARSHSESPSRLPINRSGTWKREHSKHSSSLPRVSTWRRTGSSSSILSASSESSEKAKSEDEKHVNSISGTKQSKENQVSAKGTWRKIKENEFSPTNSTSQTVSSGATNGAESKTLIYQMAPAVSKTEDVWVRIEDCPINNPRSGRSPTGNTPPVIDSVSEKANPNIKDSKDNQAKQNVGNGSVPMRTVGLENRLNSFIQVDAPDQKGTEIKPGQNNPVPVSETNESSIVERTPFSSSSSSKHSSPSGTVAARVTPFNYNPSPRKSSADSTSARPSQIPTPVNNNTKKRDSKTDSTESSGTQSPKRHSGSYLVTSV

affinity [1]: 100 pM | % cells with label (after chimera supernatant) [2]: 4.11% | loss of mast cells carrying IgE [3]: > 50%
B1: chimera of canine FcεRI alpha chain x scFv-5.91 (protein)
chain: DTLKPTVSMNPPWNTILKDDSVTLTCTGNNSLEVDSAVWLHNNTTLQETTSRLDINKAQIQDSGEYRCRENRSILSDPVYLTVFTEWLILQASANVVMEGESFLIRCHSWKNLRLTKVTYYKDGIPIRYWYENFNISISNVTTKNSGNYSCSGQIQQKGYTSKVLNIIVKKEPTKQNKYSGLQGGGGSGGGGSGGGGSEVQLQQSGPELVKPGASMKISCKASGYSITGYTIHWVKQSHGKNLEWIGLINPYTGGITYNQNFKGKATLTVDKSSSTAYMELLSLTSEDSAVYYCSRGPYGNFYAMDYWGQGTSVTVSSGGGGSGGGGSGGGGSDIQMTQSPASLSASVGETVTITCRASGNIHNYLAWYQQKQGKSPQLLVYNAKTLADSVPSRFSGSGSGTQFSLKINSLQPEDFGSYYCQHFWSTPYTFGGGTKLEIKRA
